{"source": "patent US8895062B2", "about": "“Surface-layer protein coated microspheres and uses thereof” (University of Maryland, Baltimore, priority 2006, dated 2014)", "molecules": {"B1": {"name": "HD-5α: human α-defensin 5, chemically synthesized and folded, three intra-molecular disulfide bonds (peptide, UniProt Q01523 20-94, looked up)", "Defensin alpha 5": "ESLQERADEATTQKQSGEDNQDLAISFAGNGLSALRTSGSQARATCYCRTGRCATRESLSGVCEISGRLYRLCCR", "modifications": "Defensin-5", "notes": "human α-defensin 5, chemically synthesized and folded, three intra-molecular disulfide bonds"}, "B2": {"name": "SlpA: Surface layer (S-layer) protein purified from Lactobacillus brevis ATCC 8287 by 5M LiCl extraction and gel filtration (protein)", "chain": "KSYATAGAYSTLKTDAATRNVEATGTNALYTKPGTVKGAKVVASKATMAKLASSKKSADYFRAYGVKTTNRGSVYYRVVTMDGKYRGYVYGGKSDTAFAGGIKSAETTTKADMPARTTGFYLTDTSKNTLWTAPKYTQYKASKVSLYGVAKDTKFTVDQAATKTREGSLYYHVTATNGSGISGWIYAGKGFSTTATGTQVLGGLSTDKSVTATNDNSVKIVYRTTDGTQVGSNTWVTSTDGTKAGSKVSDKAADQTALEAYINANKPSGYTVTNPNAADATYGNTVYATVSQAATSKVALKVSGTPVTTALTTADANDKVAANDTTANGSSVAGSTVYAAGTKLAQLTTDLTGEKGQVVTLTAIDTDLEDATFTGTTTYYSDLGKAYHYTYTYNKDSAASSNASTQFGSNVTGTLTATLVMGKSTATANGTTWFN"}}, "key": {"[1]": {"test_system": "Caco-2 intestinal epithelial cells", "test": "IL-8 secretion by Caco-2 cells (Luminex-100)", "type": "cell-based, human", "details": "18 hours", "procedure": "TNFα (100 ng/ml; dark grey bar) served as a positive control. Following incubation for 18 hours, culture supernatants were analyzed for IL-8 using the Luminex-100 system in duplicate. Data represent mean and standard deviation of three individual experiments.\nNo peptides (c) and TNFα alone (dark grey bar) served as controls. Following incubation for 18 hours, culture supernatants were analyzed for IL-8 using the Luminex-100 system in duplicate. Data represent mean and standard deviation of three individual experiments.\nSubconfluent monolayers of Caco-2 cells were maintained in RPMI 1640 medium (Gibco), supplemented with 10% FBS (Valley Biomedical, Winchester, Va.), 2 mM L-glutamine (Quality Biological, Gaithersburg, Md.), 20 mM HEPES, 1× nonessential amino acids, 1 mM sodium pyruvate and 5% Penicillin/Streptomycin (Sigma) in a humidified incubator at 37° C. with 5% CO2. Caco-2 cells were used between passages 35-42. Caco-2 cells were plated at a density of 4×10^4 cells/cm^2 in a 96-well plate 48 hours before use. The cells were gently washed twice with serum-free medium and incubated for a further 18 hours in serum-free medium containing the peptides at a final concentration of 50 or 100 ug/ml. Human recombinant tumor necrosis factor alpha (Sigma; 100 ng/ml) was included during incubation with the peptides (100 ug/ml) as indicated. The culture supernatant was collected for measurement of IL-8 using the Luminex-100 system (Bio-rad Laboratories)."}, "[2]": {"test_system": "E. coli ATCC 25922", "test": "Antibacterial activity, 96-well turbidimetric assay, E. coli", "type": "cell-based, Escherichia coli", "procedure": "(§1) Strains were exposed to the peptides at concentrations varying twofold from 0.12 to 125 μg/ml. (B) Strains were exposed to fixed peptide concentrations (100 ug/ml for E. coli; 50 ug/ml for S. aureus) in the absence or presence of the indicated concentrations of sodium chloride. Each curve is the mean of three separate experiments. Points scored as zero survival could not be plotted.\n(§2) The antibacterial activity of HD-5 and HD-5Abu against E. coli ATCC 25922 and S. aureus ATCC 29213 was carried out in a 96-well turbidimetric assay as described previously."}, "[3]": {"test_system": "S. aureus ATCC 29213", "test": "Antibacterial activity, 96-well turbidimetric assay, S. aureus", "type": "cell-based, Staphylococcus aureus", "procedure": "as §1, §2"}, "[4]": {"biological_target": "Fibronectin (human plasma)", "test": "Surface plasmon resonance (BIAcore 3000), immobilized SlpA binding to fibronectin", "procedure": "(§3) The interaction between SlpA and extracellular matrix components was evaluated by surface plasmon resonance on a BIAcore 3000 instrument. Purified SlpA protein in 5M LiCl was dialyzed against double-distilled water overnight. Monomeric and/or oligomeric protein was separated from self-assembled material by centrifugation at 20,000×g for 20 min. SlpA protein (50 ug/ml in 10 mM Sodium Phosphate pH 7.4) was covalently coupled to CM5 carboxylated dextran chips using N-hydroxysuccinimide (NHS) chemistry. Uncoupled NHS-ester groups were blocked with 1M Ethanolamine, resulting in the coupling of about 1700 resonance units (RU's) to the chip. Kinetic analysis was carried out at 25° C. in 10 mM HEPES, 150 mM NaCl, 3 mM EDTA, 0.005% surfactant P20, pH 7.4. Fibronectin, laminin, fibrinogen and collagen were treated according to manufacturer's instructions and injected at indicated concentrations at a flow rate of 20 ul/min over each flow cell. Binding was determined experimentally by comparing the number of RU's observed as a function of time to an activated and blocked flow cell containing no linked protein. Non-specific binding to the control flow cell appeared insignificant. Data were evaluated using the BIAevaluation 4.1 software. The association and dissociation data were modeled with the BIAevaluation 4.1 software (Pharmacia Biosensor AB). Following subtraction of data from the control flow cell, the binding data produced for the various protein concentrations were fitted simultaneously, assuming the 1:1 Langmuir model. The equilibrium constant for the fibronectin+benzamidine experiment was calculated using steady-state kinetics.\n(§4) To examine the binding properties of SlpA to the extracellular matrix proteins fibronectin, laminin, fibrinogen and collagen in detail, surface plasmon resonance was used. […] The association and dissociation rate constants were estimated from the binding data at different concentrations using the BIAevaluation software and from these values the binding constant was calculated (Table 2). […] In addition, the interaction between SlpA and the ECN components fibrinogen and collagen was studied."}, "[5]": {"biological_target": "T1, Laminin (basement membrane of Engelbreth-Holm-Swarm mouse sarcoma) (Mus musculus, UniProt P02468+P02469+P19137)", "T1 construct": "Laminin (basement membrane of Engelbreth-Holm-Swarm mouse sarcoma); purchased Sigma; host or cells: Engelbreth-Holm-Swarm mouse sarcoma basement membrane", "test": "Surface plasmon resonance (BIAcore 3000), immobilized SlpA binding to laminin", "procedure": "as §3, §4"}, "[6]": {"biological_target": "T2, Collagen (human placenta Type IV) (Homo sapiens, UniProt P02462+P08572)", "T2 construct": "purchased Sigma; host or cells: human placenta", "T2 sequence (P02462 173-1669)": "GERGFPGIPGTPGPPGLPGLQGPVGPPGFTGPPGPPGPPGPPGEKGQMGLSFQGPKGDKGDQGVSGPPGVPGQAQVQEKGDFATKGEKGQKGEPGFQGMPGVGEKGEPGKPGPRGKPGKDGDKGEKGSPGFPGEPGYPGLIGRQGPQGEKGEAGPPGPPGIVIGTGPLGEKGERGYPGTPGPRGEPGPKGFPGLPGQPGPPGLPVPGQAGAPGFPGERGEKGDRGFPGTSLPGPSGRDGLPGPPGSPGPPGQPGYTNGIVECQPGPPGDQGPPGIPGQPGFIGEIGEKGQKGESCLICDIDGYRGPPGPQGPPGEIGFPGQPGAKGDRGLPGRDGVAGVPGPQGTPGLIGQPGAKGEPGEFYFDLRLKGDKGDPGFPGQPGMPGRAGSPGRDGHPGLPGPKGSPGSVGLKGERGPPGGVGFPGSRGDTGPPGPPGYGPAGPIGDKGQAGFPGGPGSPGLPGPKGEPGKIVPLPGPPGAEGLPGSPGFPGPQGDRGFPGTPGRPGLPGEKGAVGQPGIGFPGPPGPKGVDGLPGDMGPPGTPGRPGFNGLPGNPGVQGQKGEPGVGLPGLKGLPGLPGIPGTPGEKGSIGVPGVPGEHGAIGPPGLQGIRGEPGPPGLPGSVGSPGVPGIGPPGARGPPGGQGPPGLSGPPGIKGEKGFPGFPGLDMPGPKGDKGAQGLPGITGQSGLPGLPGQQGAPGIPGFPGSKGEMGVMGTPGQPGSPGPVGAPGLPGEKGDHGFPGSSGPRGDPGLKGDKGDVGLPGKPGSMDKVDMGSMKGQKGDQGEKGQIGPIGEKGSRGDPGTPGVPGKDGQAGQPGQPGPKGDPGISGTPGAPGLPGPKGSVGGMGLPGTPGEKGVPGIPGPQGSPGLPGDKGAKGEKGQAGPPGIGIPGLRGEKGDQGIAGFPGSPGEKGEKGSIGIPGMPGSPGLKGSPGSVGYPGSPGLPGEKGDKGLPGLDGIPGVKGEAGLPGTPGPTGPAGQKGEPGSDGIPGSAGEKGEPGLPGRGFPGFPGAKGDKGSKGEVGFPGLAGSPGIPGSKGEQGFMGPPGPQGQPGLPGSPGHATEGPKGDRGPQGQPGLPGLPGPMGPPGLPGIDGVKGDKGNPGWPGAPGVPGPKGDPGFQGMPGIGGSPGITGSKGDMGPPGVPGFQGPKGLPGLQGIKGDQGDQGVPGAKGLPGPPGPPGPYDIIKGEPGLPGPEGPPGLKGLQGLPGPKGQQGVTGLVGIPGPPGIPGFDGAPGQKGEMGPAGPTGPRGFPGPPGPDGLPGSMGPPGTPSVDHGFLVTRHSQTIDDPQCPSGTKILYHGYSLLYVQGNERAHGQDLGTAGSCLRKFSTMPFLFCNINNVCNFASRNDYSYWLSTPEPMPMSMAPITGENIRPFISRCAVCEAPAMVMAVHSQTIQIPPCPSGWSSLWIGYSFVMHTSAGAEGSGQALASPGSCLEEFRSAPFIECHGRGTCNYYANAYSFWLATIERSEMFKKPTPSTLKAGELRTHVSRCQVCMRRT", "T2 sequence (P08572 184-1712)": "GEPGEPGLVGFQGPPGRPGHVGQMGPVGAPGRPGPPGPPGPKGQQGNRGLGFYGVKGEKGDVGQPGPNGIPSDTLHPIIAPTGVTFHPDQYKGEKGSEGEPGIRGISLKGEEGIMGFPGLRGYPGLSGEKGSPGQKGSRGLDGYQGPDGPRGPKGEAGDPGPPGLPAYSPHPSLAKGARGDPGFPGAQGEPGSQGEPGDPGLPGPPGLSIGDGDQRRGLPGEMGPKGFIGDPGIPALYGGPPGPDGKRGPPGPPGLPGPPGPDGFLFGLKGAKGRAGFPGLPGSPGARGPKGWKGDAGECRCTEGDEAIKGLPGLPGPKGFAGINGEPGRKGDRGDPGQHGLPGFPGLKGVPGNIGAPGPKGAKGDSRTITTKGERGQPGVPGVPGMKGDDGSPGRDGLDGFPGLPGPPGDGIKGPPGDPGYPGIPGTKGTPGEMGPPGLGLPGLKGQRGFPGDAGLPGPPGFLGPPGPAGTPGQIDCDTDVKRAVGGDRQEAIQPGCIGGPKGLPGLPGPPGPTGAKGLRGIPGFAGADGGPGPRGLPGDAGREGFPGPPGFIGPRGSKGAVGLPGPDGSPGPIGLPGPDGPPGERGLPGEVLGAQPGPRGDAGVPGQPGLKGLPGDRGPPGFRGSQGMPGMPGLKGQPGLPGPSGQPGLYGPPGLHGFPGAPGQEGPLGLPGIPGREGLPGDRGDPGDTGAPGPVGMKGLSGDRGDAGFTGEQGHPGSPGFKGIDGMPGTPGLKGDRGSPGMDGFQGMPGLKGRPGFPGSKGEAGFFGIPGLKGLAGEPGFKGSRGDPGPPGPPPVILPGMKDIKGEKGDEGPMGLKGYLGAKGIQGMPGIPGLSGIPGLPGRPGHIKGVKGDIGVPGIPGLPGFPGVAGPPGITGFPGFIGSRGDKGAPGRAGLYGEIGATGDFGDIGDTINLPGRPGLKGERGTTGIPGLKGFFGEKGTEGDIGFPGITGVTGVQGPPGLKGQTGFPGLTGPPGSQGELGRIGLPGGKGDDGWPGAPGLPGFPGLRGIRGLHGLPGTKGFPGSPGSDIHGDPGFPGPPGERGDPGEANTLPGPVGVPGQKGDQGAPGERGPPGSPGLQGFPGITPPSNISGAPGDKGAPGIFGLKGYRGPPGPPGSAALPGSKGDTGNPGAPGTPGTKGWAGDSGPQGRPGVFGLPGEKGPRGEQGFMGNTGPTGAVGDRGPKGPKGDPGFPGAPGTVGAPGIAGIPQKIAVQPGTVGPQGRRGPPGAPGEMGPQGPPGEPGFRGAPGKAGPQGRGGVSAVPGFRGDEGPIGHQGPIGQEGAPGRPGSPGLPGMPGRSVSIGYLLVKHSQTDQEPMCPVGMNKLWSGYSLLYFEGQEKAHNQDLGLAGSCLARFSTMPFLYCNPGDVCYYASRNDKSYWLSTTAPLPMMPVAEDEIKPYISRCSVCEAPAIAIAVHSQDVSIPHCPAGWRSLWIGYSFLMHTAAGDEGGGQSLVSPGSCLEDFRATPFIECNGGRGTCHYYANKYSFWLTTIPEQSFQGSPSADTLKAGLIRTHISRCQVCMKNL", "test": "Surface plasmon resonance (BIAcore 3000), immobilized SlpA binding to collagen", "procedure": "as §3, §4"}, "[7]": {"biological_target": "T3, Fibrinogen (human plasma) (Homo sapiens, UniProt P02671+P02675+P02679)", "T3 construct": "Fibrinogen (human plasma) was obtained from Calbiochem; purchased Calbiochem; host or cells: human plasma", "T3 sequence (P02671 20-644 isoform P02671-2 limits assumed)": "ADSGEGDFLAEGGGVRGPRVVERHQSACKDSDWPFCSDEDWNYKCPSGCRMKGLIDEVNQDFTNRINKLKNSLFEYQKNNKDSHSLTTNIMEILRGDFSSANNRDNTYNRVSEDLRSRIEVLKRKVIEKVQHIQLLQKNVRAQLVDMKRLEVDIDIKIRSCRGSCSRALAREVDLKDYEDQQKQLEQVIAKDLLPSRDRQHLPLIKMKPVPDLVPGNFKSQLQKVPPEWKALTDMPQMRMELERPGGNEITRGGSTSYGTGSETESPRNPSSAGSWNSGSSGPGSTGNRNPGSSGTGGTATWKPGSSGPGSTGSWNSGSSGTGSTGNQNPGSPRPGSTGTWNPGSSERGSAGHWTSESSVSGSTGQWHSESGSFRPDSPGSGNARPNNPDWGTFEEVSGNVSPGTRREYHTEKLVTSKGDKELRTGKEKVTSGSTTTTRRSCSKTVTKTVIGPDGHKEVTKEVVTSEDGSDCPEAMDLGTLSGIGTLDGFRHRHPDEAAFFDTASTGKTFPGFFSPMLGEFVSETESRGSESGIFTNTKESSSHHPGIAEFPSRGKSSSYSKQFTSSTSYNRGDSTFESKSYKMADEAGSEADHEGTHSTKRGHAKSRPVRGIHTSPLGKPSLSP", "T3 sequence (P02675 31-491)": "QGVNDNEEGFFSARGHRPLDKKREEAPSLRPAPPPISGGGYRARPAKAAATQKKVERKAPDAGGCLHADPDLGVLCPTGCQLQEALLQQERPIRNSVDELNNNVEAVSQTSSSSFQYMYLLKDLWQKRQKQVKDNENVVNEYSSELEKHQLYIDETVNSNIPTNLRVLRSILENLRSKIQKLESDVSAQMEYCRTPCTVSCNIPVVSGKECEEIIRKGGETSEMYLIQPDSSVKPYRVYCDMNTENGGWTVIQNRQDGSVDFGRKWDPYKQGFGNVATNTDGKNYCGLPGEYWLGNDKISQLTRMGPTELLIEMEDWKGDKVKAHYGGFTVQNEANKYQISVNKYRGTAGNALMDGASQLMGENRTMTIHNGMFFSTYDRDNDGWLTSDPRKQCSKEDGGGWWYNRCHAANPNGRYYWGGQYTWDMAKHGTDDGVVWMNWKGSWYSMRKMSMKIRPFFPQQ", "T3 sequence (P02679 27-437 isoform P02679-2 limits assumed)": "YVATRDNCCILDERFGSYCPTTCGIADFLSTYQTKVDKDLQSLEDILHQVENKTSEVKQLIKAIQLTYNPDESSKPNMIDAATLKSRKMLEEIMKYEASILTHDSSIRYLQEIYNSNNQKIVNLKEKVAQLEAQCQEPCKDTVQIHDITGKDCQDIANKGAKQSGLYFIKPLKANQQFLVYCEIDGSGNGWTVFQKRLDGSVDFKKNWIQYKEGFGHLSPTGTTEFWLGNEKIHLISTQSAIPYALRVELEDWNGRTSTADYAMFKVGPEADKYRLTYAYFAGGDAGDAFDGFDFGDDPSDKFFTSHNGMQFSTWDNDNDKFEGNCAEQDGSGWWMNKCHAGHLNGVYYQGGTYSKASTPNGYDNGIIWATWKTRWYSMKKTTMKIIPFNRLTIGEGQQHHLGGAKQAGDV", "test": "Surface plasmon resonance (BIAcore 3000), immobilized SlpA binding to fibrinogen", "details": "from binding constants", "procedure": "The interaction between SlpA and extracellular matrix components was evaluated by surface plasmon resonance on a BIAcore 3000 instrument. Purified SlpA protein in 5M LiCl was dialyzed against double-distilled water overnight. Monomeric and/or oligomeric protein was separated from self-assembled material by centrifugation at 20,000×g for 20 min. SlpA protein (50 ug/ml in 10 mM Sodium Phosphate pH 7.4) was covalently coupled to CM5 carboxylated dextran chips using N-hydroxysuccinimide (NHS) chemistry. Uncoupled NHS-ester groups were blocked with 1M Ethanolamine, resulting in the coupling of about 1700 resonance units (RU's) to the chip. […] Binding was determined experimentally by comparing the number of RU's observed as a function of time to an activated and blocked flow cell containing no linked protein. […] Data were evaluated using the BIAevaluation 4.1 software. […] The equilibrium constant for the fibronectin+benzamidine experiment was calculated using steady-state kinetics.\nTo examine the binding properties of SlpA to the extracellular matrix proteins fibronectin, laminin, fibrinogen and collagen in detail, surface plasmon resonance was used. […] The association and dissociation rate constants were estimated from the binding data at different concentrations using the BIAevaluation software and from these values the binding constant was calculated (Table 2). […]"}, "[8]": {"details": "peptide 0.12 to 125 μg/ml, 2 hour incubation"}, "[9]": {"details": "fibronectin to immobilized SlpA"}}, "note": "“And” between values parts separate entries of the source, which are not always exact repeats. Equal values may be shown once.", "data": [{"molecule": "TNFα [reference compound]", "values": [{"measurement": "IL-8 secretion increase relative to the control", "setting": "[1]; TNFα 100 ng/ml alone", "value": "~10", "unit": "fold"}]}, {"molecule": "B1", "values": [{"measurement": "antibacterial activity against E. coli at highest salt concentration", "setting": "[2]; peptide 100 ug/ml, 100 mM sodium chloride", "value": "almost completely inhibited"}, {"measurement": "antimicrobial activity (killing) against E. coli", "setting": "[2]; [8]", "value": "efficiently killed"}, {"measurement": "antibacterial activity against S. aureus at highest salt concentration", "setting": "[3]; peptide 50 ug/ml, 100 mM sodium chloride", "value": "still significantly toxic"}, {"measurement": "antimicrobial activity (killing) against S. aureus", "setting": "[3]; [8]", "value": "efficiently killed"}, {"measurement": "IL-8 levels increase compared to control cells", "setting": "[1]; peptide 100 ug/ml, serum-free medium", "value": "~10", "unit": "fold"}, {"measurement": "induction of IL-8 secretion", "setting": "[1]; peptide 50 and 100 ug/ml", "value": "dose-dependent"}]}, {"molecule": "B2", "values": [{"measurement": "Kd", "setting": "[4]; fibronectin + benzamidine (SlpA preincubated with 1 mM benzamidine), steady-state kinetics", "value": 30.1, "unit": "µM"}, {"measurement": "ka × 10^3", "setting": "[4]; [9]", "value": "7.04 × 10^3"}, {"measurement": "kd × 10^−3 (s^−1)", "setting": "[4]; [9]", "value": "6.32 × 10^−3 s^−1"}, {"measurement": "Kd", "setting": "[4]; fibronectin to immobilized SlpA, 25° C., 1:1 Langmuir model", "value": "0.0899 µM and 0.0898 µM"}, {"measurement": "affinity of SlpA to bind laminin compared with fibronectin", "setting": "[5]; from calculated Kd values", "value": "three-fold higher affinity"}, {"measurement": "ka × 10^3", "setting": "[5]; laminin + benzamidine (1 mM)", "value": "3.03 × 10^3"}, {"measurement": "kd × 10^−3 (s^−1)", "setting": "[5]; laminin + benzamidine (1 mM)", "value": "2 × 10^−3 s^−1"}, {"measurement": "ka × 10^3", "setting": "[5]; laminin to immobilized SlpA", "value": "4.89 × 10^3"}, {"measurement": "kd × 10^−3 (s^−1)", "setting": "[5]; laminin to immobilized SlpA", "value": "1.3 × 10^−3 s^−1"}, {"measurement": "Kd", "setting": "[6]; collagen to immobilized SlpA", "value": 31.8, "unit": "µM"}, {"measurement": "ka × 10^3", "setting": "[6]; collagen to immobilized SlpA", "value": "3.47 × 10^3"}, {"measurement": "kd × 10^−3 (s^−1)", "setting": "[6]; collagen to immobilized SlpA", "value": "1.1 × 10^−3 s^−1"}, {"measurement": "binding affinity for collagen compared with affinity for fibronectin and laminin", "setting": "[6]; from binding constants", "value": "three orders of magnitude less"}, {"measurement": "binding affinity for fibrinogen compared with affinity for fibronectin and laminin", "setting": "[7]", "value": "three orders of magnitude less"}]}]}
